Positions count from the first letter of the chain named. Numbers in names are those of the source.
B1: B. megaterium levansucrase (Priestia megaterium DSM 319; K373H) (protein)
chain: KGNDSKDFNNSYGISHITRDNMVKIPQQQNSDQFKVPAFDESTIKNIASAKGKNASGNTIDLDVWDSWPLQNADGTVATYHGYQIVFALAGDPKDSNDTSVYLFYKKAGDKSIDSWKNAGRVFKDSDKFVPNDPHLKNQTQEWSGSGTLTKDGKVRLFYTDYSGKQYGKQTLTTAQVNMSQPNDNTLKVDGVEDYKSIFDGDGKIYQTVQQFIDEGGYDTGDNHTLRDPHYIEDNGHKYLVFEANTGTEDGYQGEDSLYNRAYYGGNNPFFQSEKKKLLEGSNKEKASLANGALGIIELNDDYTLKKVMKPLITSNTVTDEIERANIFKKDGKWYLFTDSRGSHMTIDGIGQDDVYMLGYVSNTLTGKYKPLNDTGLVLHMDLDPNDKTFTYSHFAVPQTKGDNVVITSYMTNRGFYEDNHSTFAPSFLVNIDGSKTSVVKDRVLEQGQLTVDED
notes: recombinant, E. coli BL21(DE3), pRSF-derived vector, purified from cleared lysate on CM sepharose
B2: B. megaterium levansucrase (Priestia megaterium DSM 319; K373L) (protein)
chain: B1 chain with H344L
notes: as for B1

Substrate: OC[C@H]1O[C@@](CO)(O[C@H]2O[C@H](CO)[C@@H](O)[C@H](O)[C@H]2O)[C@@H](O)[C@@H]1O
Assay: initial rates, DNS reducing sugar assay, Michaelis-Menten fit
Type: biochemical, Priestia megaterium
Text: initial rates, DNS reducing sugar assay, Michaelis-Menten fit on B. megaterium levansucrase

[1] = 50 mM Sörensen buffer pH 6.5, variant 1B1, global activity (hydrolysis and transfer)
[2] = 50 mM Sörensen buffer pH 6.5, variant 3C5, global activity (hydrolysis and transfer)

Protein	Km [1] [mM]	kcat [1] [s⁻¹]	kcat/Km [1] [M⁻¹ s⁻¹]	Km [2] [mM]	kcat [2] [s⁻¹]	kcat/Km [2] [M⁻¹ s⁻¹]
B1	41.8 ± 6.6	198 ± 8.4	4720			
B2				12.5 ± 1.3	122 ± 2.3	9800

Source: publication PMC6531494, “Exploring the sequence variability of polymerization-involved residues in the production of levan- and inulin-type fructooligosaccharides with a levansucrase” (Scientific Reports, 2019)
